Values quoted from earlier work, collected in publication PMC12748512.
Where two headings read alike, the source gives them in different places.

What was measured:
[1] = target: IL-2Rβ-γc complex (Homo sapiens) (UniProt P14784)
[2] = target: IL-2Rβ-γc complex (Homo sapiens) (UniProt P14784); remark: listed apart in the source

Sequence of UniProt P14784 (P14784 27-240, chain 1 of 2): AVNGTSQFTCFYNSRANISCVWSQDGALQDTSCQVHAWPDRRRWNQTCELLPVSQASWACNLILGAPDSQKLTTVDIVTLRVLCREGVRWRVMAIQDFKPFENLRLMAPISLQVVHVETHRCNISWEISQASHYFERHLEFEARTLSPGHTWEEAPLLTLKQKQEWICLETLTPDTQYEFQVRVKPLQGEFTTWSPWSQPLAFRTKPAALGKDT
Sequence of UniProt P14784 (P31785 23-262, chain 2 of 2, further chain): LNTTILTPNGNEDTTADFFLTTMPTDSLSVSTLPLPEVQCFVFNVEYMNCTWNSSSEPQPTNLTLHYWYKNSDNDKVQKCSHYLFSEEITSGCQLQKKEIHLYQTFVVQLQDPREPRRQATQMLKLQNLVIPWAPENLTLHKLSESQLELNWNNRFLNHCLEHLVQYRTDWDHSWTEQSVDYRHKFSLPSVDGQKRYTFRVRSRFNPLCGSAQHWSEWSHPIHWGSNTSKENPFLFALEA

Row | Kd [1] [nM] | Kd [2] [nM] | Substance
1 | 1 |  | IL-2 (from UniProt P60568)
2 |  | 1 | IL-15 (from UniProt P40933)
